Columns and labels:
[1] = biological target: tissue factor (TF) antigen (UniProt P13726); assay: SPR; Fab captured by anti-His, TF as analyte; LCCA set 9060
[2] = biological target: tissue factor (TF) antigen (UniProt P13726); assay: SPR; Fab captured by anti-His, TF as analyte; LCCA set 10549 (identifier in reverse orientation, assigned by Table 12)
[3] = biological target: tissue factor (TF) antigen (UniProt P13726); assay: SPR; Fab captured by anti-His, TF as analyte; LCCA set 10549
[4] = biological target: tissue factor (TF) antigen (UniProt P13726); assay: SPR; Fab captured by anti-His, TF as analyte; LCCA set 9746
[5] = biological target: tissue factor (TF) antigen (UniProt P13726); assay: SPR (ProteOn), Fab captured on anti-penta-His, TF as analyte, 1:1 fit; estimated value (*) taken from the same Fab with another L chain tag
[6] = biological target: tissue factor (TF) antigen (UniProt P13726); assay: SPR (ProteOn), Fab captured on anti-penta-His, TF as analyte, 1:1 fit
[7] = biological target: tissue factor (TF) antigen (UniProt P13726); assay: SPR; Fab captured by anti-His, TF as analyte; LCCA set 9819
[8] = biological target: tissue factor (TF) antigen (UniProt P13726); assay: SPR; Fab captured by anti-His, TF as analyte; LCCA set 9820
[9] = biological target: tissue factor (TF) antigen (UniProt P13726); assay: SPR; Fab captured by anti-His, TF as analyte; LCCA set 9822
[10] = biological target: tissue factor (TF) antigen (UniProt P13726); assay: SPR; Fab captured by anti-His, TF as analyte; LCCA set 9823
[11] = biological target: tissue factor (TF) antigen (UniProt P13726); assay: SPR; Fab captured by anti-His, TF as analyte; LCCA set 9824

tissue factor (TF) antigen, sequence (P13726 33-251 limits assumed): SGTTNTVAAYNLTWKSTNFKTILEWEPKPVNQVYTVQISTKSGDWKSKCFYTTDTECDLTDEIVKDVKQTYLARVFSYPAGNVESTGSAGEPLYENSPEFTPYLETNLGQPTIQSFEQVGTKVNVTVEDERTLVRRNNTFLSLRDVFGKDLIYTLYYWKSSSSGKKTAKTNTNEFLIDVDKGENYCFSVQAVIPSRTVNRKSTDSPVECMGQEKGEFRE

With “D3H44 Fab heterodimer, H A139W_L143E_K145T_Q179E / L F116A_Q124R_L135V_T178R (H1L1 Fab of LCCA set 9060)” the Change in KD with respect to wild type (-(log(KD design) - log(KD wt))) [1] was 0.04 and the Kd [1] was 0.14 nM.

With “D3H44 Fab heterodimer, H L45P_K145T_Q179E / L P44F_S131K (H1L1 Fab of LCCA sets 9746, 10549)” the Change in KD with respect to wild type (-(log(KD design) - log(KD wt))) [2] was -0.35, the Kd [2] was 0.35 nM and the Change in KD with respect to wild type (-(log(KD design) - log(KD wt))) [3] was -0.35. For the same substance, the Kd [3] was 0.35 nM, the Change in KD with respect to wild type (-(log(KD design) - log(KD wt))) [4] was -0.35 and the Kd [4] was 0.35 nM.

“D3H44 Fab heterodimer, H L143E_K145T_S188L / L Q124R” was tested, and the Change in KD with respect to wild type (-(log(KD design) - log(KD wt))) [5] was -0.12, the Kd [5] was 0.21 nM and the Change in KD with respect to wild type (-(log(KD design) - log(KD wt))) [6] was -0.12. It also gave a Kd [6] of 0.21 nM.

For “D3H44 Fab heterodimer, H Q39E_L143E_K145T_H172R_Q179E / L Q38R_Q124R_Q160K_T178R (H1L1 Fab of LCCA set 9819)”, the Change in KD with respect to wild type (-(log(KD design) - log(KD wt))) [7] was 0.03 and the Kd [7] was 0.15 nM.

For “D3H44 Fab heterodimer, H Q39E_L143E_K145T_Q179E / L Q38R_Q124R_Q160K_T178R (H1L1 Fab of LCCA set 9820)”, the Change in KD with respect to wild type (-(log(KD design) - log(KD wt))) [8] was -0.1 and the Kd [8] was 0.2 nM.

“D3H44 Fab heterodimer, H Q39R_D146G_Q179K / L Q38E_Q124E_Q160E_T180E (H1L1 Fab of LCCA set 9822)” showed a Change in KD with respect to wild type (-(log(KD design) - log(KD wt))) [9] of 0.17 and a Kd [9] of 0.11 nM.

“D3H44 Fab heterodimer, H Q39R_H172R_Q179K / L Q38E_Q124E_Q160E_T180E (H1L1 Fab of LCCA set 9823)” showed a Change in KD with respect to wild type (-(log(KD design) - log(KD wt))) [10] of -0.18 and a Kd [10] of 0.24 nM.

“D3H44 Fab heterodimer, H Q39R_H172R_S186R / L Q38E_Q124E_Q160E_T180E (H1L1 Fab of LCCA set 9824)” was tested, and the Change in KD with respect to wild type (-(log(KD design) - log(KD wt))) [11] was 0.03 and the Kd [11] was 0.15 nM.
